Assay results published in patent US20070093443A1.

Biological target: T1, alpha-2 macroglobulin (in human plasma) (human) (UniProt P01023)
T1 sequence (looked up): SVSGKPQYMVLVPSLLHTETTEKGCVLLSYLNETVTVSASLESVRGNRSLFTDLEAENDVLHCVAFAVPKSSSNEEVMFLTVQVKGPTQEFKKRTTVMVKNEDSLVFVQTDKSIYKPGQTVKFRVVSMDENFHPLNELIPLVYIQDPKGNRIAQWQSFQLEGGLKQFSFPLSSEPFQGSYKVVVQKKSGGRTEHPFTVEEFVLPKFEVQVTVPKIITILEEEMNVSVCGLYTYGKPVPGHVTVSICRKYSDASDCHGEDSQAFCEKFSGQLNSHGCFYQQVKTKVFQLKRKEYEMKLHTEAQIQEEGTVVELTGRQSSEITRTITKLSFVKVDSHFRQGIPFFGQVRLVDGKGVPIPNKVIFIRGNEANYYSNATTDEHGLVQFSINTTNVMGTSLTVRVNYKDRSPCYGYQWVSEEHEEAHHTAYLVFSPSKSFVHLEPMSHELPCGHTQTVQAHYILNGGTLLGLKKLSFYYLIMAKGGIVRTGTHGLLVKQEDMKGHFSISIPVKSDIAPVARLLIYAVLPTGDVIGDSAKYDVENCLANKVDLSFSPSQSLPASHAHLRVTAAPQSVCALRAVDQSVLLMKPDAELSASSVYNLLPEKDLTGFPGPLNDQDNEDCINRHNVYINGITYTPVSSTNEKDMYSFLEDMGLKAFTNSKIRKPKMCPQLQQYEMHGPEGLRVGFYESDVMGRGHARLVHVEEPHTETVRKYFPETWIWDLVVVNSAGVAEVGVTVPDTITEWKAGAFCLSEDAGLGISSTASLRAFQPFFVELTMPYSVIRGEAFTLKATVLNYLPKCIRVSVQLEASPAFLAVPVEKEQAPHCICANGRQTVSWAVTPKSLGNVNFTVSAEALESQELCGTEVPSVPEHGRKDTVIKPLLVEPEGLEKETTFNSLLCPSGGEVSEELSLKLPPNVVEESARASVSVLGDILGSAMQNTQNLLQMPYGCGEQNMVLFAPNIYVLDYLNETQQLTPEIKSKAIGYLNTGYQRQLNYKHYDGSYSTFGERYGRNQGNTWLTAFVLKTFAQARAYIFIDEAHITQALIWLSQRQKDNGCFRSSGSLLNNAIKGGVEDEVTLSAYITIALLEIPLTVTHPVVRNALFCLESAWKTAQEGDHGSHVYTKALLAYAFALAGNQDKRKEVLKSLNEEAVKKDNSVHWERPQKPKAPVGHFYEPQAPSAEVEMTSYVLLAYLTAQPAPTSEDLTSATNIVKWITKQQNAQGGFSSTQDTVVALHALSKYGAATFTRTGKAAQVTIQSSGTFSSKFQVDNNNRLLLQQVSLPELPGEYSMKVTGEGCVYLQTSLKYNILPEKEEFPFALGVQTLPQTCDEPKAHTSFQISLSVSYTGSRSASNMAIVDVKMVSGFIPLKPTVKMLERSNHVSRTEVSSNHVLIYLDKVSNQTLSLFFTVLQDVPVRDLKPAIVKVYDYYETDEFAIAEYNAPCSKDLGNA
Test: Ac-RQAR-AMC activity of protease after 5 min in human citrated plasma, with and without M84R ecotin

% Unbound by a2M: 94%
B1: modified MT-SP1 CB484 (I41T/Y146E/Q175D/K224F) protease domain (enzyme)
chain: VVGGTDADEGEWPWQVSLHALGQGHTCGASLISPNWLVSAAHCYIDDRGFRYSDPTQWTAFLGLHDQSQRSAPGVQERRLKRIISHPFFNDFTFDYDIALLELEKPAEYSSMVRPICLPDASHVFPAGKAIWVTGWGHTQEGGTGALILQKGEIRVINQTTCENLLPQDITPRMMCVGFLSGGVDSCQGDSGGPLSSVEADGRIFQAGVVSWGDGCAQRNFPGVYTRLPLFRDWIKENTGV
